This passage reports Kd, koff and kon results from paper PMC2248580.

The target of this experiment is human activated blood coagulation factor X (FXa) (human). The experiment can be described thus: SPR; […]; 37°C; HBS (10 mM Hepes, 150 mM NaCl, 5 mM CaCl2, 0.005% P20, pH 7.4); Langmuir fit; […]. Background: SPR reads the build-up and loss of mass on a sensor chip optically.

“Myotoxin II from Bothrops asper venom (from UniProt P24605 17-137) (natural protein)”: the Kd (as a rule, the constant that tells how readily two partners part at equilibrium) came to 1.8 nM; the koff (in general, the rate constant with which the complex falls apart) is 0.0178 s⁻¹; the kon – broadly, a measure of how fast the partners come together – is 1.04e+07 M⁻¹ s⁻¹.
